From the RNAGym collection of RNA variant scans (doi:10.1073/pnas.2313332121)

B1: TPR t1 (parent)
chain: GACCAAUCUGCCCUCAGAGCUCGAGAACAUCUUCGGAUGCAGAGGAGGCAGGCUUCGGUGGCGCGAUAGCGCCAACGUCCUCAACCUCCAAUGCAUCCCACCACAUGAUGAUGCCUGAAGAGCCUUGGUUUUUUG

Variants of: B1
Test: polymerase ribozyme fitness, log enrichment relative to wild type (log ratio); higher = more active; in vitro selection for triplet polymerase activity
Method in brief: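 For each subunit of a heterodimeric triplet polymerase ribozyme, a mutant library was built by PCR and transcribed, then taken through a single in vitro selection round in triplicate. Selection involved annealing to a biotinylated primer, the partner subunit and triplets, incubation frozen at −7 °C, gel excision of extended constructs, capture on streptavidin beads and RT-PCR. Genotypes were retained after Illumina sequencing of inputs and outputs only with ≥10 input reads and ≥1 read in each output. Fitness is defined as the logarithm of a genotype's enrichment relative to wild-type enrichment, using inverse-variance-weighted averages across replicates, with the logarithm taken to base 2.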

| Variant | polymerase ribozyme fitness (log ratio) |
| --- | --- |
| C12A C53G | -1.23 |
| C20U G71U | -1.29 |
| A26C G47C U112A | -4.78 |
| C15A A111U | -5.13 |
| C20U G113U G120U | -3.12 |
| C49A G77C | -0.848 |
| A18C G36C G57U | -4.25 |
| G45C G77A C82G C89G | -3.97 |
| A5U A43G G44A G52C C124U G128U | -4.6 |
| C86A A95C | -2.08 |
| A27G C34G A43C G45U C115A | -7.59 |
| G47C U78A | -1.42 |
| A6U G48C C102U U131C | -1.55 |
| A27G G45A A83G U130G | -4.37 |
| C79G C114A C115G | -6.59 |
| G48C C72A C79G G127C | -3.9 |
| C12G C102U A119G C124U U125A | -0.278 |
| C12A U92G G128A | -5.4 |
| U7G G63A C98A | -6.38 |
| A105U U133A | -1.78 |
| U59C U130G | -0.745 |
| C70G U78A G93C | -2.76 |
| A29G A50U C70G G113A | -5.1 |
| U54G G93U A95C C101A G120A | -2.9 |

| Variant | polymerase ribozyme fitness (log ratio) |
| --- | --- |
| A95G A111G | 0.572 |
| G61C A66U A121G | -0.122 |
| A24G C85A | -3.6 |
| A2C C4A U9G C12G C104U U116C U133A | 0.375 |
| U125A U126G | -1.8 |
| U59C A105U | -2.63 |
| C34A G61C | -4.99 |
| C3U C49U | -1.18 |
| U7C A18C | -1.7 |
| C72U C88U C124A | 0.938 |
| G10C G61U C114U | -1.8 |
| A111C G117A | -2 |
| U9A C62G C94U | -0.686 |
| C22U U55G C72A U106A | -3.49 |
| A2U C12U C64U | -2.54 |
| G42C G71U A84U | -3.18 |
| G39C G45C C64U C82A C85G | -5.8 |
| A6U A50U | -0.776 |
| A18C G52A C72U | -2.39 |
| A46C A74U | -0.673 |
| C20U G45U A50C G77A U78C A84U C123A | -3.79 |
| G47C A83U | -1.11 |
| A5U A6C C8G G47A G113C | -2.19 |
| C101A G110U A119G | -2.89 |

| Variant | polymerase ribozyme fitness (log ratio) |
| --- | --- |
| G42A A118U | -1.15 |
| A41U G63A C101A G113A A118U | -4.42 |
| C101A A111C | -0.305 |
| C56U G77A C124U | 1.2 |
| A29U G45U A74G | -3.27 |
| C13G C40U C49A | -2.42 |
| A43C G77A | -2.79 |
| G17U A111G U133G | -2.2 |
| C3A G110C | -5.4 |
| A37U U54A G61C C102A | -4.66 |
| A27U G47A | -4.02 |
| C56A U81A A83C | -2.85 |
| C4U C8G G36U U38A G44U C73A C124A | -4.82 |
| A18G C20U A29U U32G C53A C97U | -2.71 |
| G48C G71C | -0.845 |
| C97G U129A | -5.28 |
| A111G G117U | -4.12 |
| G61C G77U | -1.86 |
| C3U C8A A16G A43C C79A C88U C124A U125A U132C | -3.17 |
| A29U G117A | -3.25 |
| U30G C56G U106A U125A | -2.32 |
| C56A A95C C102A | -3.39 |
| C88G A111C | 0.0984 |
| C34U G69U A105U G120U | -2.74 |

| Variant | polymerase ribozyme fitness (log ratio) |
| --- | --- |
| G120C G122A | -0.824 |
| G47U U116G C124U | -2.14 |
| A50C G110U | -1.99 |
| A2G C114U G120U | -3.07 |
| A66G C72G A95U G117U U132C | -6.16 |
| G69U A83U A95U U106A | 0.29 |
| C8G C12U C15U G120U | 2.64 |
| C62U A74U G128C | -3 |
| G60A C82G C101U G120A G128U | -2.12 |
| A27G G120A | -1.1 |
| C11A G17C G19A G39A G69U C123G | -5.74 |
| A6C C28G U30A G51U G69A C70A C115A G128C | -6.73 |
| A6U G36C G44A G77U C123G | -0.241 |
| G52C A100C C114A | -4.06 |
| C64U A100U | -0.493 |
| C73G C98U U129C | -1.94 |
| U9G G36A U87C C99U | -3.41 |
| C8A U54A C62U G110U U125C | -1.99 |
| U9A C13A | 0.483 |
| A18G C56G A83U G110C | -4.59 |
| C70U C94G A95G | -1.78 |
| A84G G117U G135U | -4.65 |
| C56A C73U | 0.483 |
| U9G G61U C70U C82U C115U C123A | -3.33 |

| Variant | polymerase ribozyme fitness (log ratio) |
| --- | --- |
| A37C G42A A43U C49U C53G U55C | -4.27 |
| G10U C22A A119U | -5.31 |
| C31U C104U | -4.18 |
| C22G G63C G69C U112A | -5.1 |
| G42C U116C U125A | -3.61 |
| C28G A37U | -2.45 |
| A50U C64A A100C A111G | -6.26 |
| C13U C73U G93C U106A A118G | -1.26 |
| C12A C102U | -2.56 |
| U54A C56A | 0.502 |
| U9A C89G | -2.53 |
| U9G C64U | 0.223 |
| C56A C101U U106C A111C | -0.932 |
| C8U U9C C12U G71U U132A | 0.729 |
| C70G A84U C85U C104U | -4.81 |
| A43C U92G C101A U132A | -4.9 |
| C53U G93U | -0.832 |
| A2C C12A C104U | -1.93 |
| C72U C82U | -0.823 |
| C8G C62U | 0.179 |
| A68U C123U | -5.66 |
| G60A G69U A121C G122U | -0.0689 |
| U59A U129G | -1.18 |
| G45U C94U | -1.46 |

| Variant | polymerase ribozyme fitness (log ratio) |
| --- | --- |
| A2U G47U G61U | -4.48 |
| G19U G71A U78A | -4.64 |
| C123G | 1.8 |
| C13G G17U U38A C49G G61U | -4.63 |
| A6C G69U C76G C85G G120U | -1.75 |
| C53A C56U U78C A118U G120C | 0.115 |
| C12G C62G C115U | -3.7 |
| C94G U131A | -1.9 |
| A43U G113C | -3.56 |
| C8A G77U C82A | 0.031 |
| C22G C56U | -3.32 |
| A41C U55G A66C G93C | -4.9 |
| G45U C89U U96A C114U C124G | -2.49 |
| A18U G127C | -3.45 |
| C8U U81A A84G | -0.331 |
| G35U C101A G113C | -6.29 |
| U14A G36U A37U | -3.4 |
| C13G C62A | -1.11 |
| A2G G135U | -0.44 |
| A29U A74C | -1.73 |
| C13U C114A | -1.07 |
| G45U G52U U54C G58C G60C | -0.884 |
| C56A U87A U92A G120A A121U U131A | -4.2 |
| G36U G44A G47A G48U C82G A121C | -0.473 |

| Variant | polymerase ribozyme fitness (log ratio) |
| --- | --- |
| A50C G120A | 0.456 |
| C3U G35U C70A C99A C115A | -4.32 |
| C53U C89U G135C | -0.361 |
| C15A G71C C97G G117U | -5.07 |
| G47A C88U C102U | -3.29 |
| G39U G58A | 0.844 |
| A18G C102G G110U | -5.75 |
| C13A G60A U131A | -2.5 |
| A2U | -2.07 |
| G45U U109A | -6.02 |
| C56G G57U G65A C101G A111C | -6.81 |
| C8U G61A A95U G120A | 1.6 |
| G35C G39U C64U | -7.51 |
| A5U U125A U133G | -0.817 |
| C3U U54G A75G U92C | -2.3 |
| C11G G36C G44C U78A U87G | -1.77 |
| C12A C70A | -2.05 |
| C12U C114A | -1.12 |
| U7C C15U G45A U92A | -4.93 |
| C13U A26G G60C G93C | -3.34 |
| C89U G127C | -1.79 |
| U106G G107A U133A | -5.4 |
| C62U C94A | -1.69 |
